Test results reported in patent US20240010720A1 (IOMX THERAPEUTICS, published 2024).

Assays:
[1] = target: T1, human IGSF11 (VSIG3) on cells (human, UniProt Q5DX21 23-431); assay: FACS % positive cells, scFv
T1 sequence: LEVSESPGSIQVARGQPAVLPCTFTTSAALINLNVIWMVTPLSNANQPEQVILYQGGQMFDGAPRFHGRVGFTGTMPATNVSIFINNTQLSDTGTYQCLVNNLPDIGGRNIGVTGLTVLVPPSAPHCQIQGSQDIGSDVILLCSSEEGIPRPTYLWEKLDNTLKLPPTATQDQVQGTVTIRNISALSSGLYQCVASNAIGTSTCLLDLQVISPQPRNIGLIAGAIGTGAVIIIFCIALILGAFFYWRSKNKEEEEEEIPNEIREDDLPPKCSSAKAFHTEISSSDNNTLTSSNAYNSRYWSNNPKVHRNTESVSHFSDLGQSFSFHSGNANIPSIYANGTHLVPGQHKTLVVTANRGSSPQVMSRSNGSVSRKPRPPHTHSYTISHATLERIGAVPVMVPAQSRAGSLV

Streptavidin [2] = target: T2, Streptavidin (UniProt P22629 37-163, limits assumed); assay: ELISA, scFv
T2 construct: also called negative antigen; irrelevant antigen
T2 sequence (P22629 37-163 limits assumed): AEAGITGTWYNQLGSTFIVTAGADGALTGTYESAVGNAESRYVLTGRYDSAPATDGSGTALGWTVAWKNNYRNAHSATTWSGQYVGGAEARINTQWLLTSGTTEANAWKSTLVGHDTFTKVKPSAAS

Streptavidin [3] = target: T2, Streptavidin; assay: ELISA, Fab
Description: (§1) In order to identify IGSF11-specific binding ABPs, monoclonal Fabs expressed from E. coli were generated from the enriched set of anti-IGFS11 antibody-expressing phage. After bacterial lysis, the Fabs were tested for their binding properties and cross-reactivity profile on recombinant ECD-IGSF11 (human, mouse and cynomolgus monkey) by standard ELISA. Briefly, biotinylated recombinant ECD-IGSF11 from human, mouse, or cynomolgus monkey were immobilized at 2 ug/mL on a streptavidin-coated 384-well Maxisorp plate. The surface was blocked with 2% (w/v) skim milk powder in PBST. After three wash cycles with PBST, a bacterial lysate of each of the anti-IGSF11 Fabs in 2% (w/v) skim milk powder was applied to the immobilized IGSF11 and incubated for 1 h. After removing all unbound Fab by 3 wash cycles with PBST, bound Fab antibodies were detected with a goat anti-human Fab antibody conjugated with horseradish peroxidase. After three wash cycles with PBST the ELISA was developed with TMB substrate.

[4] = target: T3, recombinant murine IGSF11 extracellular domain (ECD) (mouse, UniProt P0C673 23-240, biotinylated); assay: ELISA, Fab
T3 construct: also called Mouse IGSF11; murine ECD-IGSF11
T3 sequence: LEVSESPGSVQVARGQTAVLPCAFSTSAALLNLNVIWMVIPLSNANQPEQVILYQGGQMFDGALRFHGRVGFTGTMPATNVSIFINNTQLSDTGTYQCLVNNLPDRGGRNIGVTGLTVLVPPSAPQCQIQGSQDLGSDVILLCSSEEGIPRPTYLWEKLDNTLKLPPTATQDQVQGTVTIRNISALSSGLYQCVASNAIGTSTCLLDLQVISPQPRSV
Description: as §1

[5] = target: T4, IGSF11 ECD fused to murine-Fc (human; mouse, UniProt Q5DX21 23-241); assay: ELISA, IgG
T4 construct: also called Fc-fusion IGSF11 ECD; full-length ECD of IGSF11; not shown: murine Fc
T4 sequence: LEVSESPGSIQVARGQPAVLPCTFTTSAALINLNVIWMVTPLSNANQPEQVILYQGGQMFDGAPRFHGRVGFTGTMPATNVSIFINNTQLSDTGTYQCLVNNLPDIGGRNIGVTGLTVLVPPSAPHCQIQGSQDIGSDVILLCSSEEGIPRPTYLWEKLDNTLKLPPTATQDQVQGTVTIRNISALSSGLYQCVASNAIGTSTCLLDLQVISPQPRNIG

B1: A-030 (scFv format) (scFv, V domains shown)
VH: QVQLVQSGAEVKKPGASVKVSCKASGYTFTGYYMHWVRQAPGQGLEWMGWINPNSGNTGYAQKFQGRVTMTRNTSISTAYMELSSLRSEDTAVYYCARGGQQQLVLDDYWGQGTLVTVSS
VL: DIQLTQSPSTLSASVGDRVTITCRASQSIGGWLAWYQHKPGKAPKLLIYAASSLQSGVPSRFSGSGSGTDFTLTISSLQPEDFATYYCRQSYSTPPTFGQGTKVEIK
notes: scFv
- binding result [1]: binds
- binding result (Streptavidin [2]): no binding (tested: <0.025 or <0.05 RFU)

B2: A-032 (scFv format) (scFv, V domains shown)
VH: QVQLVQSGAEVKKPGASVKVSCKASGYTFTGYYMHWVRQAPGQGLEWMGWMNPNSGNTGYAQKFQGRVTMTRNTSISTAYMELSSLRSEDTAVYYCARGGQQQLVLDDYWGQGTLVTVSS
VL: not shown
- binding result [1]: binds
- binding result (Streptavidin [2]): no binding (tested: <0.025 or <0.05 RFU)

B3: A-037 (scFv format) (scFv, V domains shown)
VH: QVQLVQSGAEVKKPGASVKVSCKASGYTFTGYYMHWVRQAPGQGLEWMGWINPNSGNTGYAQKFQGRVTMTRNTSISTAYMELSSLRSEDTAVYYCARGGQQQLVLDDYWGQGTLVTVSS
VL: NFMLTQPHSVSESPGKTVTISCTGSSGSIASNYVQWYQQRPGSAPTTVIYEDNQRPSGVPDRFSGSIDSSSNSASLTISGLKTEDEADYYCQSYDSSNQRVFGGGTKLTVL
notes: scFv
- binding result [1]: binds
- binding result (Streptavidin [2]): no binding (tested: <0.025 or <0.05 RFU)

B4: A-036 (scFv format) (scFv, V domains shown)
VH: QVQLVQSGAEVKKPGASVKVSCKASGYTFTGYYMHWVRQAPGQGLEWMGWINPNSGGTNYAQKFQGRVTMTRNTSISTAYMELSSLRSEDTAVYYCARGGQQQLVLDDYWGQGTLVTVSS
VL: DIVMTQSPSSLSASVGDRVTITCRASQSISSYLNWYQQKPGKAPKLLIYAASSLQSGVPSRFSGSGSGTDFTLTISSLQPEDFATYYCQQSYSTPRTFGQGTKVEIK
notes: scFv
- binding result [1]: binds
- binding result (Streptavidin [2]): no binding (tested: <0.025 or <0.05 RFU)

B5: C-008 (Fab format) (Fab, V domains shown)
VH: EVQLLESGGGLVQPGGSLRLSCAASGFTFSSYAMSWVRQAPGKGLEWVSAISGSGGSTYYADSVKGRFTISRDNSKNTLYLQMNSLRAEDTAVYYCTTDNGHNRDWGQGTLVTVSS
VL: ASVLTQPPSVSAAPGQKVTISCSGSSSNIGNNYVSWYQQLPGTAPKLLIYDNNKRPSGIPDRFSGSKSGTSATLGITGLQAEDEADYYCGTWTRSSGVFGGGTKLTVL
notes: Fab in E. coli lysate
- A450 (Streptavidin [3]): < 0.1

B6: A-031 (scFv format) (scFv, V domains shown)
VH: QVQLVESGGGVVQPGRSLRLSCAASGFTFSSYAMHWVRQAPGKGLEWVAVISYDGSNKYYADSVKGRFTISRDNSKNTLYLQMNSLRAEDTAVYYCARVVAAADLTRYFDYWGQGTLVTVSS
VL: EIVLTQSPGTVSLSPGERATLSCRASQSVPKNYLAWFQQKPGQAPRLVIHTASSRAPGIPDRFTGSGSGTDFTLTISRLEPEDFAVYYCQQYGTSPNTFGQGTKLDIK
notes: scFv
- binding result [1]: binds
- binding result (Streptavidin [2]): no binding (tested: <0.025 or <0.05 RFU)

B7: A-014 (scFv format) (scFv, V domains shown)
VH: QVQLVQSGAEVKKPGASVKVSCKASGYTFNDYYIHWVRQAPGQGLEWMGWFNPSTGGANYAQKFQGRVTMTRDTSISTAYLEVSSLRSDDTAVYYCARGNSPDLDYWGQGTLVTVSS
VL: DIQMTQSPDSLTVSLGERATINCKSSQSLLHSSNNKNYLAWYQQRPGQPPKLLIYWASTRQSGVPDRFSGSGSGTDFTLTINSLQADDMAVYYCQQYYTTTPNTFGQGTKLEIK
notes: scFv
- binding result [1]: binds
- binding result (Streptavidin [2]): no binding (tested: <0.025 or <0.05 RFU)

B8: C-017 (Fab format) (Fab, V domains shown)
VH: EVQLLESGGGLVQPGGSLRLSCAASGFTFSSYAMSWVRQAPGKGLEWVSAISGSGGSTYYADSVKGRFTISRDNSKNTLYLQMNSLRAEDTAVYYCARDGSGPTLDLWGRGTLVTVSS
VL: DIQMTQSPSSLSASVGDRVTITCRASQSISSYLNWYQQKPGKAPKLLIYAASSLQSGVPSRFSGSGSGTDFTLTISSLQPEDFATYYCQQHRYIPPWTFGQGTKVEIK
notes: Fab in E. coli lysate
- A450 [4]: < 1

B9: C-005 (Fab format) (Fab, V domains shown)
VH: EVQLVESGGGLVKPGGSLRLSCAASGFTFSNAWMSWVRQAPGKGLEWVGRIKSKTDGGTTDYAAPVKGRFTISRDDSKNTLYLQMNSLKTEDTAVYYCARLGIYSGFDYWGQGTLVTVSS
VL: SYELTQPPSVSVSPGQTASITCSGDKLGDKYASWYQQKPGQSPVLVIYQDSKRPSGIPERFSGSNSGNTATLTISGTQAEDEADYYCHSYTGKPSQVVFGGGTKLTVL
notes: Fab in E. coli lysate
- A450 (Streptavidin [3]): < 0.1

B10: C-024 (Fab format) (Fab, V domains shown)
VH: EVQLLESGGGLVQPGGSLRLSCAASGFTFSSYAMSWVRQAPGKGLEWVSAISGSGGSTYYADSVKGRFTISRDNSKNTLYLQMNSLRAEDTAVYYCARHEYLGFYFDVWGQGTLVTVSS
VL: SYELTQPPSVSVSPGQTASITCSGDKLGDKYASWYQQKPGQSPVLVIYQDSKRPSGIPERFSGSNSGNTATLTISGTQAEDEADYYCLASHRLTLNYVFGGGTKLTVL
notes: Fab in E. coli lysate
- A450 [4]: < 1

B11: C-024 (IgG1 format) (antibody, V domains shown)
VH: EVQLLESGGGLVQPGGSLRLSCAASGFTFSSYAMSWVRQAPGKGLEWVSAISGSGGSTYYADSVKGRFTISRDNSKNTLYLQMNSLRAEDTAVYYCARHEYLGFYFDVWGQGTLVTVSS
VL: SYELTQPPSVSVSPGQTASITCSGDKLGDKYASWYQQKPGQSPVLVIYQDSKRPSGIPERFSGSNSGNTATLTISGTQAEDEADYYCLASHRLTLNYVFGGGTKLTVL
notes: wildtype human IgG1 and kappa or lambda constant regions
- EC50 [5]: 1 to 20 nM

B12: C-009 (Fab format) (Fab, V domains shown)
VH: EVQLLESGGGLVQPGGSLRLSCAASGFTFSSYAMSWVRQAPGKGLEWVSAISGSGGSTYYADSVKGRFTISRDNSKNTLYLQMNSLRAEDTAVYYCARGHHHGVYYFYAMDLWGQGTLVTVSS
VL: SYELTQPPSVSVSPGQTASITCSGDKLGDKYASWYQQKPGQSPVLVIYQDSKRPSGIPERFSGSNSGNTATLTISGTQAEDEADYYCQSYSGSSTLHVFGGGTKLTVL
notes: Fab in E. coli lysate
- A450 (Streptavidin [3]): < 0.1

B13: C-015 (Fab format) (Fab, V domains shown)
VH: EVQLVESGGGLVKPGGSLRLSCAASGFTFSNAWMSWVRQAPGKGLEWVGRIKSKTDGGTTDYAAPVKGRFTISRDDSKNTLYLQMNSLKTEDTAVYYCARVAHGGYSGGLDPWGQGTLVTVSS
VL: SYELTQPPSVSVSPGQTASITCSGDKLGDKYASWYQQKPGQSPVLVIYQDSKRPSGIPERFSGSNSGNTATLTISGTQAEDEADYYCSSTGTAHTLAVFGGGTKLTVL
notes: Fab in E. coli lysate
- A450 (Streptavidin [3]): < 0.1
- A450 [4]: < 1

B14: C-023 (Fab format) (Fab, V domains shown)
VH: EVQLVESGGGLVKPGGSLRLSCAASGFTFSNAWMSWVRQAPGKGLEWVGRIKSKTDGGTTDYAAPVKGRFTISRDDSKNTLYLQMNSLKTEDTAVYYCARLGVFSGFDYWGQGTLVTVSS
VL: SYELTQPPSVSVSPGQTASITCSGDKLGDKYASWYQQKPGQSPVLVIYQDSKRPSGIPERFSGSNSGNTATLTISGTQAEDEADYYCHTWTHHSLAVVFGGGTKLTVL
notes: Fab in E. coli lysate
- A450 (Streptavidin [3]): < 0.1
- A450 [4]: < 1

B15: C-020 (Fab format) (Fab, V domains shown)
VH: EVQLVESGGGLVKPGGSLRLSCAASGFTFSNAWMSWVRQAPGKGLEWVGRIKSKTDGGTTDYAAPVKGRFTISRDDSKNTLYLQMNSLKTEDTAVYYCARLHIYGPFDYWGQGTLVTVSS
VL: SYELTQPPSVSVSPGQTASITCSGDKLGDKYASWYQQKPGQSPVLVIYQDSKRPSGIPERFSGSNSGNTATLTISGTQAEDEADYYCLSYLARSGSVVFGGGTKLTVL
notes: Fab in E. coli lysate
- A450 [4]: < 1

B16: C-007 (Fab format) (Fab, V domains shown)
VH: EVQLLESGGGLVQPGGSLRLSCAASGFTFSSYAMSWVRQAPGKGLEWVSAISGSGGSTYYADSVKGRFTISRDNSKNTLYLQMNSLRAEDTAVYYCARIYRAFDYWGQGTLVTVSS
VL: ASVLTQPPSVSAAPGQKVTISCSGSSSNIGNNYVSWYQQLPGTAPKLLIYDNNKRPSGIPDRFSGSKSGTSATLGITGLQAEDEADYYCQLYEEEHSTWVFGGGTKLTVL
notes: Fab in E. coli lysate
- A450 (Streptavidin [3]): < 0.1

B17: C-002 (Fab format) (Fab, V domains shown)
VH: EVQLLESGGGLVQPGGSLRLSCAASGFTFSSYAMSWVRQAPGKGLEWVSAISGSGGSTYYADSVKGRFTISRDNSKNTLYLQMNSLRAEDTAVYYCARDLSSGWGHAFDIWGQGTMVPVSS
VL: ASVLTQPPSVSAAPGQKVTISCSGSSSNIGNNYVSWYQQLPGTAPKLLIYDNNKRPSGIPDRFSGSKSGTSATLGITGLQAEDEADYYCLSYTTSEHHLVFGGGTKLTVL
notes: Fab in E. coli lysate
- A450 (Streptavidin [3]): < 0.1
- A450 [4]: < 1

B18: C-026 (IgG1 format) (antibody, V domains shown)
VH: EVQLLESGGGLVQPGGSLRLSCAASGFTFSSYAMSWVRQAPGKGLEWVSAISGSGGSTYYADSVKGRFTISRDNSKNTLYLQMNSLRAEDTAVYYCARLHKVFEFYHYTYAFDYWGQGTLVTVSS
VL: ASVLTQPPSVSAAPGQKVTISCSGSSSNIGNNYVSWYQQLPGTAPKLLIYDNNKRPSGIPDRFSGSKSGTSATLGITGLQAEDEADYYCASYSSETSGWVFGGGTKLTVL
notes: as for B11
- EC50 [5]: 1 to 20 nM

B19: C-026 (Fab format) (Fab, V domains shown)
VH: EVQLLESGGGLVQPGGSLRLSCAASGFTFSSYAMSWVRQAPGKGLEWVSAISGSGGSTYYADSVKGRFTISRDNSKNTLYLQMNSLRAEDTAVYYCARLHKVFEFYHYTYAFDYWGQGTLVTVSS
VL: ASVLTQPPSVSAAPGQKVTISCSGSSSNIGNNYVSWYQQLPGTAPKLLIYDNNKRPSGIPDRFSGSKSGTSATLGITGLQAEDEADYYCASYSSETSGWVFGGGTKLTVL
notes: Fab in E. coli lysate
- A450 (Streptavidin [3]): < 0.1

B20: C-016 (Fab format) (Fab, V domains shown)
VH: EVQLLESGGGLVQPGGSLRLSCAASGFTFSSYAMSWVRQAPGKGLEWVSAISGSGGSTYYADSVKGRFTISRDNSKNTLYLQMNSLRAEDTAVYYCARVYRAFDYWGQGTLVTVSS
VL: ASVLTQPPSVSAAPGQKVTISCSGSSSNIGNNYVSWYQQLPGTAPKLLIYDNNKRPSGIPDRFSGSKSGTSATLGITGLQAEDEADYYCHLYTEAESHWVFGGGTKLTVL
notes: Fab in E. coli lysate
- A450 (Streptavidin [3]): < 0.1
- A450 [4]: < 1

B21: C-001 (Fab format) (Fab, V domains shown)
VH: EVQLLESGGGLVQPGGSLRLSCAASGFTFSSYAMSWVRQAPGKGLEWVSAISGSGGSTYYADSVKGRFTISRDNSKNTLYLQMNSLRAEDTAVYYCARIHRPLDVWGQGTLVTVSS
VL: ASVLTQPPSVSAAPGQKVTISCSGSSSNIGNNYVSWYQQLPGTAPKLLIYDNNKRPSGIPDRFSGSKSGTSATLGITGLQAEDEADYYCGSWLEERSQYVFGGGTKLTVL
notes: Fab in E. coli lysate
- A450 (Streptavidin [3]): < 0.1

B22: C-021 (Fab format) (Fab, V domains shown)
VH: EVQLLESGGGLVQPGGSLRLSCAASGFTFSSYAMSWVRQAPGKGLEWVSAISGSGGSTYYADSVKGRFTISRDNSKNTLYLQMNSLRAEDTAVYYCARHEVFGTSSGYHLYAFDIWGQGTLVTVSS
VL: DIQMTQSPSSLSASVGDRVTITCRASQSISSYLNWYQQKPGKAPKLLIYAASSLQSGVPSRFSGSGSGTDFTLTISSLQPEDFATYYCQQWSGLPLTFGQGTKVEIK
notes: Fab in E. coli lysate
- A450 (Streptavidin [3]): < 0.1
- A450 [4]: < 1

B23: C-022 (Fab format) (Fab, V domains shown)
VH: EVQLLESGGGLVQPGGSLRLSCAASGFTFSSYAMSWVRQAPGKGLEWVSAISGSGGSTYYADSVKGRFTISRDNSKNTLYLQMNSLRAEDTAAYYCARMAAGASWGTFDYWSQGTLVTVSS
VL: DIQMTQSPSSLSASVGDRVTITCRASQSISSYLNWYQQKPGKAPKLLIYAASSLQSGVPSRFSGSGSGTDFTLTISSLQPEDFATYYCQQRSGSPLTFGQGTKVEIK
notes: Fab in E. coli lysate
- A450 (Streptavidin [3]): < 0.1

B24: C-022 (IgG1 format) (antibody, V domains shown)
VH: EVQLLESGGGLVQPGGSLRLSCAASGFTFSSYAMSWVRQAPGKGLEWVSAISGSGGSTYYADSVKGRFTISRDNSKNTLYLQMNSLRAEDTAAYYCARMAAGASWGTFDYWSQGTLVTVSS
VL: DIQMTQSPSSLSASVGDRVTITCRASQSISSYLNWYQQKPGKAPKLLIYAASSLQSGVPSRFSGSGSGTDFTLTISSLQPEDFATYYCQQRSGSPLTFGQGTKVEIK
notes: as for B11
- EC50 [5]: 1 to 20 nM
